# Measured values as given in US20110039758A1.
# Values joined by “and” are separate entries in the source; they are usually repeats but may differ in a detail not shown here. Identical values can stand only once. Ends that are not written are not given here.
# Assays:
# Assay in all cases: G assay
# [1] = molecular target: GST-PSD95 PDZ domain 3 (human)
# [2] = molecular target: GST-PSD95 PDZ domain 1 (human)
# [3] = molecular target: GST-NOS1 (nNOS) PDZ domain (human)
# [4] = molecular target: GST-PSD95 PDZ domain 2 (human)
Binder,Average OD [1],Average OD [2],Average OD [3],Average OD [4]
DGGARTEDEVQSYPSKHDYV (modifications not checked),1.05 OD,1.25 OD,,
SSPDSSYQGKGFVMSRAMYV (modifications not checked) [Nectin 2 PL peptide],0.91 OD,1.01 OD,0.54 OD,
DFRPSFKHILFRRARRGFRQ (modifications not checked) [alpha-2C Adrenergic receptor PL peptide],1.72 OD and 1.19 OD,2.05 OD and 1.26 OD,3.02 OD and 2.09 OD,
TGSALQAWRHTSRQATESTV (modifications not checked),0.78 OD,3.86 OD,,
PIPAGGCTFSGIFPTLTSPL (modifications not checked) [KIAA 1481 PL peptide],,,0.71 OD,
GGDLGTRRGSAHFSSLESEV (modifications not checked) [NMDAR2D C-terminal 20mer peptide],,0.86 OD and 0.77 OD,,3.11 OD and 2.22 OD and 1.31 OD
VGTLLLERVIFPSVKIATLV (modifications not checked) [AdenoE4 typ9 PL peptide],,,3.64 OD and 2.73 OD and 4 OD,
TQGFPGPATWRRISSLESEV (modifications not checked) [NMDA Glutamate Receptor 2C (cysteine-free) C-terminal 20mer peptide],1.46 OD and 1.17 OD,,0.49 OD,3.56 OD and 2.89 OD and 2.07 OD
PGQPPKVKSEFNSYSLTGYV (modifications not checked) [claudin 2 PL peptide],0.79 OD,1.03 OD and 0.85 OD,0.69 OD,
AWDDSARAAGGQGLHVTAL (modifications not checked) [LPAP PL peptide],,,0.77 OD,
QDFRRAFRRILARPWTQTAW (modifications not checked) [a-2B Adrenergic receptor PL peptide],3.74 OD and 2.98 OD,1.59 OD and 0.87 OD,3.54 OD and 2.52 OD,
HDFRRAFKKILARGDRKRIV (modifications not checked) [alpha-2A Adrenergic receptor PL peptide],,,0.96 OD and 0.73 OD,
RSGATIPLVGQDIIDLQTEV (modifications not checked),,,,1.23 OD
TTNNNPNSAVNIKKIFTDV (modifications not checked) [KV1.3 PL peptide],1 OD,2.28 OD and 1.12 OD,0.67 OD,1.06 OD
YGRKKRRQRRRKLSSIESDV (not fully specified) [[…] (Tat transporter fused to the C-terminal 9 amino acids of NMDA Receptor 2B)],,3.87 OD and 2.13 OD and 1.4 OD,,4.06 OD and 3.53 OD and 3.1 OD
SSSQSLESDGSYQKPSYIL (modifications not checked) [CD62E PL peptide],,,0.5 OD,
KDITSDSENSNFRNEIQSLV (modifications not checked),,,,1.35 OD
PYSELNYETSHYPASPDSWV (modifications not checked) [catenin-delta 2 PL peptide],,1.18 OD,2.1 OD,
QISPGGLEPPSEKHFRETEV (modifications not checked) [20 C-terminal amino acids from TAX],,,,2.39 OD
HSCCNRARQERLQRRRETQV (modifications not checked) [HPV-E6 #18 PL peptide],,,2.14 OD,

Binder,Average OD [1],Average OD [2],Average OD [3],Average OD [4]
LNSSSNRRVYKKMPSIESAV (modifications not checked),,,,3.37 OD and 2.67 OD and 2.29 OD
VPSDNIDSQGRNASINDSLL (modifications not checked) [beta-2 Adrenergic Receptor PL peptide],,,0.85 OD,
KAGYRAPRSYPKSNSSKEYV (modifications not checked) [claudin 7 PL peptide],0.92 OD and 0.86 OD,1.28 OD and 1.08 OD,1.01 OD and 0.93 OD,
"ELLQFCRTPNPALKNGQYWV (modifications not checked) [CSPG4 (chondroitin sulfae proteoglycan 4, melanoma-associated) PL peptide]",,,2.43 OD and 1.27 OD,
LGYSIPSRSGASGLDKRDYV (modifications not checked) [claudin 9 PL peptide],,0.82 OD,0.51 OD,
VHKVRNKFKAKCSLCRLYII (modifications not checked) [HPV-E6 #63 PL peptide],4 OD,4 OD and 2.67 OD,2.55 OD and 4 OD,4 OD and 2.62 OD
RELVDRGEVRQFTLRHWLKV (modifications not checked) [Dopamine transporter PL peptide],,,1.38 OD and 1.27 OD and 1.1 OD,
GRWTGRAMSAWKPTRRETEV (modifications not checked) [HPV E6 #35 (cysteine-free) PL peptide],4 OD,4 OD and 3.08 OD,0.74 OD and 0.62 OD,2.82 OD
RIAYSLLGLKDQVNTVGIPI (modifications not checked) [ephrin A2 PL peptide],,,1.83 OD and 4 OD,
ALVLIAFCIIRRRPSAYQAL (modifications not checked) [CD68 PL peptide],,,0.67 OD,
LAVLAYSITLVMLWSIWQYA (modifications not checked) [Serotonin receptor 3a PL peptide],,,1.02 OD,
SSKSKSSEESQTFFGLYKL (modifications not checked) [Fas Ligand PL peptide],1.07 OD,1.23 OD,1.99 OD and 1.93 OD,
VDPNSPAAKKKYVSYNNLVI (modifications not checked) [GLUR7 (metabotropic glutamate receptor) PL peptide],0.82 OD,0.85 OD,0.75 OD and 0.64 OD and 0.59 OD,
SYPTPRPYPKPAPSSGKDYV (modifications not checked) [claudin 1 PL peptide],0.85 OD,0.95 OD,0.9 OD,
LNSCSNRRVYKKMPSIESDV (modifications not checked) [NMDAR2A C-terminal 20mer peptide],,4.07 OD and 4 OD,,
SFTSILTCHQRRTQRKETVA (modifications not checked) [GluR5-2 (rat) PL peptide],4 OD,3.12 OD and 2.26 OD,0.65 OD,
KTMPAAMYRLLTAQEQPVYI (modifications not checked) [MINT-1 PL peptide],,,4 OD and 3.76 OD,
SPQPDSTDNDDYDDISAA (modifications not checked) [CD6 PL peptide],,,0.59 OD,
HHLVAQRDIRQFQLQHWLAI (modifications not checked) [noradrenaline transporter PL peptide],0.82 OD and 0.7 OD,,1.08 OD,
